Positions count from the first letter of the chain named.
Biological target: RBD-biotin
Assay: BLI

B1: Ab 16 (scFv, V domains shown)
VH: QVQLVQSGGGVVQPGRSLRLSCAASGFTFSNYGMHWVRQAPGKGLEWVALIWERGSKKDYADSVKGRFTVSRDNSKNTLYLQMNSLRPEDTAVYFCAREGISMTGAEYFQHWGQGTLVTVSS
VL: QSVLTQPPSVSGSPGQRVTMSCTGSSSNIGAGYDVHWYQQVPGAAPRLLIYGTNNRPSGVPDRFSGSKSGTSASLTITGLQAEDEADYYCQSYDNSLTDPYVFGTGTKVTVL
  Kd: 0.959 nM

B2: Ab 27 (Fc fusion)
VH: QVQLVQSGTEVKKPGASVKVSCKASGYSFTGSHLHWVRQAPGQGLEWMGWINPDSGVINYAQKFQGRVTLTRDTSISTAYMELSGLRSDDTAVYYCARDKAIGYVWALDYWGQGTLVTVSS
VL: QSALTQPPSVSGSPGQSVTISCTGTSSDVGTYNRVSWYQQPPGKAPKLMIYEVSNRPSGVSNRFSGSKSGNTASLTISGLQAEDEADYYCSSYTRTFTYVFGTGTKVTVL
  Kd: 0.906 nM

B3: Ab 21 (scFv, V domains shown)
VH: QVQLVQSGGGLVQPGGSLRLSCATSGFTFDDYAMHWVRQAPGKGLEWVSGISWNSGSIGYVDSVKGRFTISRDNRNNKVYLQMNNLRAEDTAVYYCARDWWGSIDHWGLGTLVTVSS
VL: QSALTQPRSVSGSPGQSVTISCTGTSSDVGGYDYVSWYQQHPGKAPKLIIYDVSKRPSGVPDRFSGSKSGNTASLTVSGLQAEDEADYYCSSYTSSSPVVFGGGTKLTVL
  Kd: 1.48 nM

B4: Ab 18 (scFv, V domains shown)
VH: EVQLVQSGGGVVQPGRSLRVSCAASGFSFSRYGMHWVRQAPGKGLEWVAFIRHDGSKKYYADSVEGRFTISRDNSRNTVSLEMNSLRGEDTAVYYCAKDGRLEAALDDWGQGTLVTVSS
VL: NFMLTQPHSMSGSAGKTVTVSCIRSSGSIANNFVQWYQQRPGSAPTTVIYEDNQRPSGVPDRFSGSIDSSSNSASLTISGLKTEDEADYYCQSYDSSNLVFGGGTRLTVL
  Kd: 2.31 nM

B5: Ab 25 (Fc fusion)
VH: QVQLVQSGGGLVQPGGSLRLSCAASGFTFSSYWMSWVRQAPGKGLEWVANIKQDGSEKYYVDSVKGRFTISRDNAKNSLYLQMNSLRAEDTAVYYCARGFYYYGAFDIWGQGTTVTVSS
VL: NFMLTQPHSVSESPGKTVTISCTGSSGSIASNYVQWYQQRPGSAPTTVIYEDNQRPSGVPDRFSGSIGSSSNSASLTISGLKTEDEADYYCQSYDSSNHWVFGGGTKLTVL
  Kd: 0.223 nM

B6: Ab 13 (scFv, V domains shown)
VH: QVTLKESGPKLVKPTQTLTLTCTFSGFSLSTSGVGVGWIRQPPGKALEWLALIYWDDDKRYSPSLKSRLTIAKDTSKYQVVLTMTNMDPVDTATYYCARISGSGYFYPFDIWGQGTMVTVSA
VL: B5 VL with G24R, G68D, H99L
  Kd: 0.922 nM

B7: Ab 20 (scFv, V domains shown)
VH: QVQLVQSGGGSVKPGGSLRLSCAASGYRLSDYYMHWVRQAPGKGLEWVANIKQDGSEKYYVDSVKGRFTISRDNAKNSLYLQMNSLRAEDTAVYYCARVRGWSRGYFDYWGQGTLVTVSS
VL: B5 VL with G68D, T77L
  Kd: 1.9 nM

B8: Ab 17 (scFv, V domains shown)
VH: QVQLVQSGGGVVQPGRSLRLSCAASGFTFDDYAMHWVRQVPGKGLEWVSGIDWNSGVIGYADSVKGRFTISRDNVKNSLYLQMNSLRTEDSALYYCAKDIGPGGSGSYYAFDIWGQGTTVTVSS
VL: QSALTQPASVSGSPGQSITISCTGTSSDVGGSKYVSWYQQHPGKAPKVMIYDVTKRPSGVPDRFSGSKSGNTASLTISGLQAEDEADYYCAAWDDSLNGVVFGGGTKLTVL
  Kd: 0.882 nM

B9: Ab 23 (Fc fusion)
VH: EVQLVQSGAEVKKPGSSVKVSCRSSGGTFSTYGITWVRQAPGQGLEWMGRIIPSLGIPNYAQKFQGRVTITADTSVSTAWMELSSLESDDTAIYYCARENIDLATNDFWGQGTLVTVSS
VL: QSALTQPPSASGSPGQSVTISCTGTSRDIGAYGYVSWYQQVPGKAPKLIIYEVRNRPSGVSSRFSGSKSGNTASLTISGLQAEDEADYYCSSYTSSSTLDVVFGGGTKLTVL
  Kd: < 0.001 nM

B10: Ab 15 (Fc fusion)
VH: QVQLVQSGGGLVKPGRSLRLSCTASGFTFGDYAMSWFRQAPGKGLEWVGFIRSKAYGGTTGYAASVKGRFTISRDDSKSIAYLQMNSLKTEDTAVYYCTTADDDMDVWGKGTTVTVSS
VL: NFMLTQPHSVSESPGKTVTISCTRSSGTIASNYVQWYQQRPGSAPTTVIYEDNQRPSGVPDRFSGSIDRSSNSASLTISGLTPDDEADYYCQSYDTSNHYVFGTGTKVTVL
  Kd: 6.61 nM
